Reference: PMC4805248

Assays:
[1] = molecular target: T1, PgMntR (Porphyromonas gingivalis W50 (W83 locus PG1044)) (UniProt Q7MVL0); test: EMSA; settings: EMSA: 1 nM biotinylated DNA, 700-1000 nM protein, 90 mM Bis-Tris borate pH 6.8 (1 mM TCEP, 5 mM DTT) or 10 mM Tris-Cl pH 7.5 or Tris-acetate pH 6.8, 50 mM KCl …
T1 sequence: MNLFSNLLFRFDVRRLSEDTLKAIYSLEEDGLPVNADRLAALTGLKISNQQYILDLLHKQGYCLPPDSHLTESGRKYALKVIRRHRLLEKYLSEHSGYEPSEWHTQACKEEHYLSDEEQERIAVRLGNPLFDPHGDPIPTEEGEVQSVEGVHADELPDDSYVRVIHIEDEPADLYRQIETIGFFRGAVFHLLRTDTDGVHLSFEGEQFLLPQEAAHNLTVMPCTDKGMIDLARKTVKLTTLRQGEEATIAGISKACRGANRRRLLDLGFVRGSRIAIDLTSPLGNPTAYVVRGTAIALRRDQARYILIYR

[2] = molecular target: PgMntR 4Ala variant (D19A/C108A/E111A/H112A) (Porphyromonas gingivalis W50); test: AUC; sedimentation velocity; 10 or 60 uM protein in TBS (50 mM Tris-Cl, 150 mM NaCl, pH 7.5), 20 C, 40,000 rpm; without divalent metal, also with Mn2+ and with 2 mM TCEP; c(s) fit in SEDFIT
[3] = molecular target: PgMntR (Porphyromonas gingivalis manganese transport regulator orthologue, PG1044), recombinant wild type (Porphyromonas gingivalis W50); test: as above
[4] = molecular target: PgMntR C108E variant (Porphyromonas gingivalis W50); test: as above
[5] = molecular target: PgMntR D19M variant (Porphyromonas gingivalis W50); test: as above
[6] = molecular target: PgMntR ΔFeoA2 (PgMntR without the final C-terminal FeoA domain) (Porphyromonas gingivalis W50); test: as above

GATAGCGCAAAAATACTAACTAAACCAATGAATAAACGAGAAATACAATTTATTATTAAAGAGACTGTTGCACAATAACCCTCTCCCCCTCTCATATTGATCAAGACAGACACAAGCATTGATTTGACGAAGAAAGGAGAGCTTCATGCAATCTCTCTGCAAACCTCAAGTAATCTGAAAAACACTTAAGAATCAGCTCTGCGGCAAAAGACTTCAATGAAAGTCCTATAAAATAGTTGCAAACAGCTGATAGTTAGCGCATTGATGGGAGC (double strand) [FB1p (feoB1 promoter)]
binding [1]: no binding

PgMntR 4Ala variant (D19A/C108A/E111A/H112A) (natural protein)
stoichiometry N [2]: 2

PgMntR (Porphyromonas gingivalis manganese transport regulator orthologue, PG1044), recombinant wild type (natural protein)
stoichiometry N [3]: 2

PgMntR C108E variant (natural protein)
stoichiometry N [4]: 2

PgMntR D19M variant (natural protein)
stoichiometry N [5]: 2

PgMntR ΔFeoA2 (PgMntR without the final C-terminal FeoA domain) (domain or fragment)
stoichiometry N [6]: 2
